The test system of one data set is clear cell EOC PDX PH250. The conditions noted are these: mouse, in vivo. As for the experimental part: Mouse experiments were approved by the University of Queensland Animal Ethics Committee. For PET/CT imaging female NOD.Cg-Prkdc^scid Il2rg^tmwil/SzJ mice (6-8 weeks; 4 per group; Jackson Laboratory, Bar Harbor, Me.) were injected intraperitoneally with cells dissociated from a previously described clear cell EOC PDX designated PH250 (Weroha S J, et al., (2014) Clin Cancer Res. 2014; 20(5):1288-97) (0.2 g/mouse of pelleted cell slurry). CDCP1 expression by PDX PH250 was assessed by immunohistochemical and Western blot analysis as described (He Y, et al., (2016) Oncogene. 35(4):468-78.). 10D7 and IgG1K control were labelled with the positron-emitting radionuclide ^89Zr as described (Zeglis B M, et al., (2015) J Vis Exp. (96): 52521)), and yield and purity determined by radio-TLC and -HPLC (Agilent, Mulgrave, Australia). […] PET image acquisition (30 minutes) was followed by CT for anatomical registration and attenuation correction, with images reconstructed and analyzed using the Inveon Research Workspace (Siemens). Ex vivo bio-distribution was assessed after the final imaging time point. Harvested tumour and organs, cleaned of blood, were weighed and radioactivity quantified using a PerkinElmer 2480 Automatic Gamma Counter (Perkin Elmer, Milton, Australia) and presented as % ID/g of tumour or tissue. […]

Data set [1] has as its system CDCP1-positive TKCC05 cells. Nature of the data set: Lindmo assay, immune-reactive fraction. The conditions noted are these: 3 h at 4° C. The class given is binding, human. The procedure: 10D7 and control IgG1κ were labelled with the positron-emitting radionuclide ^89Zr as described (Zeglis B M and Lewis J S (2015) J Vis Exp 96:52521). Yield and purity of the labelled antibodies were determined by radio-TLC and -HPLC (Agilent, Mulgrave, Australia). To assess the impact of radiolabelling on 10D7 binding, the immune-reactive fraction (IRF) of 10D7-^89Zr was determined by Lindmo assay as previously described (Burvenich I J et al (2016) J Nucl Med. 57(6):974-80). Briefly, serially diluted TKCC05 cells (5×10^6-0.156×10^6 cells) were incubated with various amounts of 10D7-^89Zr alone or in the presence of a saturating amount of unlabelled 10D7 antibody (700 nM). After incubation (3 h at 4° C.) cells were centrifuged and the radioactivity of the cell pellet and supernatant was determined using a Wizard 2480 gamma counter (Perkin Elmer, Milton, Australia) and immunoreactive fraction (IRF) was calculated as previously described (Tolmachev V, Orlova A, Andersson K. (2014) Methods Mol Biol. 1060:309-30; Burvenich I J et al (2016) J Nucl Med. 57(6):974-80).
To evaluate whether the ability of antibody 10D7 to disrupt cellular processes that promote PDAC in vitro can be harnessed to target this cancer in vivo, the inventors first evaluated the capacity of this antibody to detect PDAC xenografts in mice. […]

B1: ^89Zr-DFO-10D7 (conjugate)
VH: EVQLQQFGAELVKPGASVKISCKASGYSFSDFNIEWLKQSHGKSLEWIGDINPNYDSTNYNQKFKGRATLTVDKSSSTAYMEVRSLTSEDTAVYYCARLGYGYAMDYWGQGTSVTVSS
VL: NIVMTQSPQSMSMSVGERVTLSCKASENVGAYVSWFQQKPDQSPKLLILAASNRYTGVPARFIGSGSATDFTLTISSVQAEDLADYHCGQSYTYPYTFGGGTKLEIKRADAAPTVS
In the case of B1, the “percent injected dose per gram of tissue, tumour” value with clear cell EOC PDX PH250 was 47.7±2.6 % ID/g. Moreover, the “immune-reactive fraction (IRF)” value in data set [1] came out at 88.9%.

Values taken from patent US20220389113A1, “BINDING PROTEINS TO CUB DOMAIN-CONTAINING PROTEIN (CDCP1)” (COMMONWEALTH SCIENTIFIC AND INDUSTRIAL RESEARCH ORGANISATION, priority 2019, published 2022).
